Results from paper PMC2946066.

Molecular target: VHH ALc-B8 expressed as thioredoxin fusion protein (alpaca)
Test: SPR

## recombinant BoNT/A protease (light chain), amino acids 1–448 of BoNT/A holotoxin (from UniProt P0DPI1 1-448) (enzyme)
  Kd: 1.06 nM
